Data reported in patent US20220348681A1, “FUSED PROTEIN OF AN ANTIBODY WHICH RECOGNIZES CANCER-CELLS AND A STREPTAVIDIN MUTANT” (THE UNIVERSITY OF TOKYO, priority 2021, published 2022).

Assay: Interaction analysis between CEA-V2122-del5 and modified biotin using Biacore T200 (single-cycle kinetics, bivalent analysis mode)
Format: binding
Settings: analyte Psyche J-iodine
Description: The interaction between CEA-V2122-del5 and a modified biotin was analyzed using Biacore T200. The Psyche J-iodine described in Production Example 1 was used herein as a modified biotin.
The analysis method was specifically as follows. That is, an amine-coupling kit was used, a target value was set to be 3000 RU, and the purified CEA-V2122-del5 was immobilized on Sensor Chip CM5. With regard to the concentrations of the analytes, 2.5E−09 M was two-fold diluted, and 5 types of two-fold serial dilutions including 2.5E-09 M were prepared and used in the measurement. Regarding interaction analysis, data were obtained by single-cycle kinetics analysis. Using Biacore T200 Evaluation Software, version 2.0, the obtained data were subjected to curve fitting in a bivalent analysis mode, and the following values were obtained: ka1=6.3E+03, and kd1=8.0E−06.

[1] = CEA-V2122-del5 immobilized on Sensor Chip CM5, 5 two-fold serial dilutions from 2.5E-09 M, curve fitting in bivalent analysis mode

B1: CEA-V2122-del5: fusion of scFv-type anti-CEACAM5 antibody and mutant streptavidin V2122 lacking 11 C-terminal amino acids including 6xHis tag (SEQ ID NO: 18) (protein)
chain: MKYLLPTAAAGLLLLAAQPAMAQVKLEQSGAEVVKPGASVKLSCKASGFNIKDSYMHWLRQGPGQRLEWIGWIDPENGDTEYAPKFQGKATFTTDTSANTAYLGLSSLRPEDTAVYYCNEGTPTGPYYFDYWGQGTLVTVSSGGGGSGGGGSGGGGSENVLTQSPSSMSVSVGDRVNIACSASSSVPYMHWLQQKPGKSPKLLIYLTSNLASGVPSRFSGSGSGTDYSLTISSVQPEDAATYYCQQRSSYPLTFGGGTKLEIKGGGGSGGGGAEAGITGTWSDQLGDTFIVTAGADGALTGTYENAVGGAESRYVLTGRYDSAPATDGSGTALGWTVAWKNNSKNAHSATTWSGQYVGGADAKINTQWLLTSGTTNANAWKSTLVGHDTFTKVK
Q: What does the source list for B1?
A: ka1 [1]: 6.3E+03; kd1 [1]: 8.0E−06; KD=kd1/ka1 (evaluation value from the bivalent analysis): 1.3E−09
